Values joined by “and” are separate entries in the source; they are usually repeats but may differ in a detail not shown here. Equal values may be shown once.

For this data set the following is noted: Homo sapiens, pH 7, 25 °C, Sodium phosphate 20 mM, NaCl 100 mM, transition: 3, reversible: yes, whole UniProt chain shown.

B1: Glutathione S-transferase A1 wild type, P08263 (protein)
chain: MAEKPKLHYFNARGRMESTRWLLAAAGVEFEEKFIKSAEDLDKLRNDGYLMFQQVPMVEIDGMKLVQTRAILNYIASKYNLYGKDIKERALIDMYIEGIADLGEMILLLPVCPPEEKDAKLALIKEKIKNRYFPAFEKVLKSHGQDYLVGNKLSRADIHLVELLYYVEELDSSLISSFPLLKALKTRISNLPTVKKFLQPGSPRKPPMDEKSLEEARKIFRF
As for B1, the “denaturant midpoint (higher = more stable)” value (from here on “denaturant midpoint”) (GdnHCl, Absorbance) was 1.5 M and 1.3 M and 2.3 M; the “denaturant midpoint” value (GdnHCl, CD) amounted to 2.2 M; the “denaturant midpoint” value (GdnHCl, Fluorescence) is 1.8 M and 1.1 M and 2.4 M; the “denaturant midpoint” value (Urea, Absorbance) was 4.8 M and 4.1 M; the “denaturant midpoint” value (Urea, CD) is 5.3 M and 4.8 M. Further, the unfolding free energy runs as follows: (GdnHCl, Absorbance) 8.96 kcal/mol and 10.2 kcal/mol and 11.8 kcal/mol; (GdnHCl, CD) 17 kcal/mol; (Urea, Absorbance) 14 kcal/mol and 12.7 kcal/mol; (Urea, CD) 19.6 kcal/mol and 17.1 kcal/mol. Further, the denaturant m value reads like this: (GdnHCl, CD) 4.8 kcal/mol/M; (Urea, Absorbance) 2.12 kcal/mol/M and 2.31 kcal/mol/M; (Urea, CD) 3.38 kcal/mol/M and 3.67 kcal/mol/M.

(Values after FireProtDB (doi:10.1021/bi000176d).)
